Target: T1, ICS (pro-IL-1beta-derived epitope)
T1 construct: also called ICS peptide; 14-mer called ICS
T1 peptide: NEAYVHDGPVRSLN
Assay: method not stated; measured in a different context from the cleavage assay, with LEPB lacking a free N-terminus

B1: LEPB (peptide)
peptide: KARKEAELAAATAEQ
notes: In the ICE cleavage experiment it was a synthetic peptide with a free N-terminus; also called synthetic LEPB; 15mer (LEPB)
With B1 the Kd was 2000 nM.

From patent US20060275823A1 (published 2006)
